From the supplement of paper PMC9112550, “Optimization of the antimicrobial peptide Bac7 by deep mutational scanning” (BMC Biology, 2022)

system: Escherichia coli TOP10; test: shrunken log2 fold change of peptide-encoding DNA abundance (4.5 h post-induction vs induction); higher = less antimicrobial activity (less host growth inhibition); conditions: time post-induction: 4.5 h; library: site-saturation at positions 5, 18, 19, 20
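Further: peptides expressed intracellularly from a pBAD plasmid library in pooled LB shake-flask culture, induced with 0.3% L-arabinose, DNA abundance read by NGS, three biological replicates, DESeq2 with apeglm shrinkage.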

| Sequence | shrunken log2 fold change |
| --- | --- |
| RRIRKRPPRLPRPRPRPWDPPRP | -0.235 |
| RRIRPRPPRLPRPRPRPYVSPRP | 0.00613 |
| RRIRVRPPRLPRPRPRPHDAPRP | -0.141 |
| RRIRKRPPRLPRPRPRPHFPPRP | 0.179 |
| RRIRARPPRLPRPRPRPKHGPRP | 0.246 |
| RRIRERPPRLPRPRPRPFIRPRP | -0.854 |
| RRIRTRPPRLPRPRPRPNQIPRP | -0.469 |
| RRIRHRPPRLPRPRPRPGRDPRP | 0.135 |
| RRIRYRPPRLPRPRPRPFRLPRP | -0.0183 |
| RRIRSRPPRLPRPRPRPVMLPRP | -0.112 |
| RRIRGRPPRLPRPRPRPMIPPRP | -0.219 |
| RRIRKRPPRLPRPRPRPRHGPRP | -0.0248 |
| RRIRRRPPRLPRPRPRPIWRPRP | 0.181 |
| RRIRARPPRLPRPRPRPIQTPRP | -0.0208 |
| RRIRKRPPRLPRPRPRPATQPRP | 0.958 |
| RRIRHRPPRLPRPRPRPDGWPRP | 0.191 |
| RRIRYRPPRLPRPRPRPAPWPRP | -0.0627 |
| RRIRCRPPRLPRPRPRPTYRPRP | 0.0231 |
| RRIRTRPPRLPRPRPRPLKDPRP | 0.0122 |
| RRIRVRPPRLPRPRPRPPGRPRP | 0.593 |
| RRIRPRPPRLPRPRPRPQSCPRP | -0.0478 |
| RRIRGRPPRLPRPRPRPRWRPRP | 0.973 |
| RRIRRRPPRLPRPRPRPRSCPRP | 0.182 |
| RRIRPRPPRLPRPRPRPLQHPRP | -0.17 |
| RRIRNRPPRLPRPRPRPSTNPRP | -0.337 |

| Sequence | shrunken log2 fold change |
| --- | --- |
| RRIRARPPRLPRPRPRPIYRPRP | -0.0972 |
| RRIRERPPRLPRPRPRPQAQPRP | -0.0773 |
| RRIRYRPPRLPRPRPRPTSGPRP | 0.0452 |
| RRIRYRPPRLPRPRPRPNCVPRP | -0.0116 |
| RRIRDRPPRLPRPRPRPDKAPRP | -0.00804 |
| RRIRKRPPRLPRPRPRPFDCPRP | -0.128 |
| RRIRQRPPRLPRPRPRPAPYPRP | 0.204 |
| RRIRMRPPRLPRPRPRPCVLPRP | -2.47e-05 |
| RRIRWRPPRLPRPRPRPTGDPRP | 0.241 |
| RRIRFRPPRLPRPRPRPASKPRP | 0.0916 |
| RRIRGRPPRLPRPRPRPPCWPRP | 1.09 |
| RRIRVRPPRLPRPRPRPCVAPRP | 0.159 |
| RRIRTRPPRLPRPRPRPQKFPRP | -0.632 |
| RRIRNRPPRLPRPRPRPLDSPRP | -0.125 |
| RRIRVRPPRLPRPRPRPLWEPRP | 0.203 |
| RRIRQRPPRLPRPRPRPGHDPRP | -0.112 |
| RRIRPRPPRLPRPRPRPFGFPRP | 0.0716 |
| RRIRERPPRLPRPRPRPVPTPRP | 0.116 |
| RRIRFRPPRLPRPRPRPHVTPRP | -0.211 |
| RRIRLRPPRLPRPRPRPEPRPRP | 0.74 |
| RRIRFRPPRLPRPRPRPVFEPRP | -0.0387 |
| RRIRDRPPRLPRPRPRPPIKPRP | -0.204 |
| RRIRQRPPRLPRPRPRPMYLPRP | -0.415 |
| RRIRCRPPRLPRPRPRPMIYPRP | -0.144 |
| RRIRCRPPRLPRPRPRPCKQPRP | -0.0357 |

| Sequence | shrunken log2 fold change |
| --- | --- |
| RRIRPRPPRLPRPRPRPNFQPRP | -0.00527 |
| RRIRQRPPRLPRPRPRPMDMPRP | -0.274 |
| RRIRHRPPRLPRPRPRPACCPRP | -0.0888 |
| RRIRQRPPRLPRPRPRPSPRPRP | 0.31 |
| RRIRDRPPRLPRPRPRPDRPPRP | -0.251 |
| RRIRERPPRLPRPRPRPIDPPRP | 0.0954 |
| RRIRHRPPRLPRPRPRPWFCPRP | -0.583 |
| RRIRNRPPRLPRPRPRPYQRPRP | -0.0199 |
| RRIRKRPPRLPRPRPRPIPMPRP | 0.0472 |
| RRIRGRPPRLPRPRPRPDKHPRP | 0.0564 |
| RRIRNRPPRLPRPRPRPWLPPRP | -0.0828 |
| RRIRARPPRLPRPRPRPTCHPRP | 0.427 |
| RRIRKRPPRLPRPRPRPADAPRP | 0.194 |
| RRIRDRPPRLPRPRPRPCHNPRP | -0.184 |
| RRIRSRPPRLPRPRPRPSRYPRP | -0.148 |
| RRIRWRPPRLPRPRPRPCAKPRP | -0.0723 |
| RRIRMRPPRLPRPRPRPAFLPRP | 0.175 |
| RRIRPRPPRLPRPRPRPDDGPRP | -0.21 |
| RRIRCRPPRLPRPRPRPSLIPRP | -0.286 |
| RRIRDRPPRLPRPRPRPRSFPRP | 0.429 |
| RRIRYRPPRLPRPRPRPEPFPRP | 0.0898 |
| RRIRNRPPRLPRPRPRPWKEPRP | -0.59 |
| RRIRQRPPRLPRPRPRPMNTPRP | 0.0106 |
| RRIRNRPPRLPRPRPRPGPPPRP | 0.581 |
| RRIRDRPPRLPRPRPRPEQHPRP | 0.465 |

| Sequence | shrunken log2 fold change |
| --- | --- |
| RRIRWRPPRLPRPRPRPQTLPRP | 0.132 |
| RRIRERPPRLPRPRPRPCPQPRP | -0.232 |
| RRIRVRPPRLPRPRPRPLTTPRP | -0.219 |
| RRIRIRPPRLPRPRPRPDESPRP | -0.172 |
| RRIRTRPPRLPRPRPRPEMTPRP | 0.0523 |
| RRIRARPPRLPRPRPRPALQPRP | 0.354 |
| RRIRYRPPRLPRPRPRPKYFPRP | -0.314 |
| RRIRDRPPRLPRPRPRPGFKPRP | 0.0624 |
| RRIRERPPRLPRPRPRPWASPRP | -0.00133 |
| RRIRKRPPRLPRPRPRPNDWPRP | 0.455 |
| RRIRKRPPRLPRPRPRPFSGPRP | -0.172 |
| RRIRKRPPRLPRPRPRPQWKPRP | 0.17 |
| RRIRQRPPRLPRPRPRPFYEPRP | -0.413 |
| RRIRMRPPRLPRPRPRPEQVPRP | 0.493 |
| RRIRQRPPRLPRPRPRPWPCPRP | -0.0164 |
| RRIRSRPPRLPRPRPRPWKNPRP | -0.0508 |
| RRIRPRPPRLPRPRPRPTEHPRP | -0.1 |
| RRIRYRPPRLPRPRPRPVNAPRP | -0.361 |
| RRIRLRPPRLPRPRPRPACYPRP | -0.202 |
| RRIRSRPPRLPRPRPRPNMFPRP | -0.289 |
| RRIRHRPPRLPRPRPRPECAPRP | 0.249 |
| RRIRCRPPRLPRPRPRPSSDPRP | -0.162 |
| RRIRHRPPRLPRPRPRPCAQPRP | 0.000337 |
| RRIRGRPPRLPRPRPRPTIEPRP | 0.673 |
| RRIRERPPRLPRPRPRPKHWPRP | 0.0518 |

| Sequence | shrunken log2 fold change |
| --- | --- |
| RRIRIRPPRLPRPRPRPTGDPRP | 0.109 |
| RRIRKRPPRLPRPRPRPQRDPRP | 0.858 |
| RRIRDRPPRLPRPRPRPLLLPRP | 0.468 |
| RRIRKRPPRLPRPRPRPHQHPRP | 0.213 |
| RRIRMRPPRLPRPRPRPSPRPRP | 1.05 |
| RRIRRRPPRLPRPRPRPYGMPRP | -0.242 |
| RRIRFRPPRLPRPRPRPRIVPRP | -0.267 |
| RRIRTRPPRLPRPRPRPFVCPRP | -0.374 |
| RRIRWRPPRLPRPRPRPIPSPRP | 0.0317 |
| RRIRYRPPRLPRPRPRPLCTPRP | -0.759 |
| RRIRDRPPRLPRPRPRPTSRPRP | 0.208 |
| RRIRVRPPRLPRPRPRPFMNPRP | -0.836 |
| RRIRIRPPRLPRPRPRPGMHPRP | 0.00513 |
| RRIRFRPPRLPRPRPRPTAYPRP | -0.243 |
| RRIRQRPPRLPRPRPRPTKTPRP | 0.298 |
| RRIRSRPPRLPRPRPRPPCEPRP | -0.236 |
| RRIRSRPPRLPRPRPRPSTVPRP | -0.353 |
| RRIRRRPPRLPRPRPRPRRDPRP | 0.19 |
| RRIRSRPPRLPRPRPRPRLAPRP | 0.45 |
| RRIRHRPPRLPRPRPRPHLHPRP | -0.513 |
| RRIRSRPPRLPRPRPRPKKCPRP | -0.0782 |
| RRIRYRPPRLPRPRPRPSMRPRP | -0.634 |
| RRIRSRPPRLPRPRPRPQEFPRP | -0.00884 |
| RRIRSRPPRLPRPRPRPYEKPRP | -1.08 |
| RRIRLRPPRLPRPRPRPNGKPRP | -0.0324 |

| Sequence | shrunken log2 fold change |
| --- | --- |
| RRIRARPPRLPRPRPRPIDPPRP | 0.00727 |
| RRIRGRPPRLPRPRPRPMMDPRP | 0.66 |
| RRIRARPPRLPRPRPRPPNAPRP | 0.825 |
| RRIRQRPPRLPRPRPRPDFIPRP | -0.345 |
| RRIRIRPPRLPRPRPRPKCTPRP | -0.233 |
| RRIRQRPPRLPRPRPRPSFPPRP | -0.125 |
| RRIRWRPPRLPRPRPRPTMQPRP | 0.13 |
| RRIRSRPPRLPRPRPRPFTCPRP | -0.0185 |
| RRIRLRPPRLPRPRPRPYQYPRP | -0.151 |
| RRIRWRPPRLPRPRPRPPKAPRP | -0.0568 |
| RRIRQRPPRLPRPRPRPNHMPRP | -0.422 |
| RRIRIRPPRLPRPRPRPSHHPRP | -0.941 |
| RRIRGRPPRLPRPRPRPVYCPRP | 0.0683 |
| RRIRLRPPRLPRPRPRPARDPRP | 0.426 |
| RRIRRRPPRLPRPRPRPHFNPRP | -0.11 |
| RRIRVRPPRLPRPRPRPFMTPRP | 0.127 |
| RRIRCRPPRLPRPRPRPKFPPRP | -0.0293 |
| RRIRKRPPRLPRPRPRPCFSPRP | -0.51 |
| RRIRQRPPRLPRPRPRPFAYPRP | -0.0651 |
| RRIRNRPPRLPRPRPRPPFGPRP | 0.291 |
| RRIRARPPRLPRPRPRPMSPPRP | 0.342 |
| RRIRNRPPRLPRPRPRPIFYPRP | 0.00954 |
| RRIRKRPPRLPRPRPRPTDGPRP | 0.396 |
| RRIRGRPPRLPRPRPRPSYYPRP | 0.118 |
| RRIRLRPPRLPRPRPRPENDPRP | -0.336 |
